Measured values reported in patent US20050118674A1, “Engineering of Controlled Deamidation Rates in Peptides, Proteins, and Similar Structures” (priority 2003, published 2005).
Where no end group is shown, it is not given here.

Test: First-order nonenzymatic deamidation of pentapeptides in Tris buffer
Type: physicochemical
Conditions: pH 7.4, 37.0° C., 0.15 M Tris HCl; Asn pentapeptides
Method: One of the discoveries made was that the sequence dependence of deamidation is much richer and covers a wider range than previously thought. In 37° C., pH 7.4, 0.15 M Tris buffer, the combination of XxxAsnYyy and XxxGlnYyy sequences where Xxx and Yyy are any of the naturally occuring amino acids covers a range from less than 1 day to over 15,000 days with the entire range in between available.
It is based on pentapeptide rates measure in 37° C., pH 7.4, 0.15 M Tris buffer. The applicability of a pentapeptide model to sequence dependence was verified in a separate set of experiments. All values listed in this table are experimental except for the four values in boxes, which were estimated from the rest of the data.
It is also based on pentapeptide rates measure in 37° C., pH 7.4, 0.15 M Tris buffer. In this case, the 52 values shown in bold were measured, and the rest of the values were derived from surface fitting.
Deamidation rates are affected by a wide variety of parameters, including, pH, Temperature, Ionic Strength, and Buffer Ions. These rates are measured under pH and Temperature conditions that are applicable to biological systems. The buffer type and concentration were chosen to minimize ion affects to the extent possible given the experimental limitations. Modification of these conditions will change the rates in Tables 1 and 2. As long as the conditions are not taken to extremes (i.e. high temperature, or strongly acidic or basic conditions) the qualitative sequence dependence should remain the same and the rates reported here can be used with necessary adjustments.
With “GlyGlyAsnHisGly (GGNHG; printed: GlyGlyAsnHisGly)” the “First-Order Deamidation Halftimes of GlyXxxAsnYyyGly” value was 9.2 days. For “GlyAlaAsnProGly (GANPG; printed: GlyAlaAsnProGly)”, the “First-Order Deamidation Halftimes of GlyXxxAsnYyyGly” value was 7370 days. In the case of “GlyTrpAsnLeuGly (GWNLG; printed: GlyTrpAsnLeuGly)”, the “First-Order Deamidation Halftimes of GlyXxxAsnYyyGly” value is reported as 133 days. With “GlyIleAsnGlyGly (GINGG; printed: GlyIleAsnGlyGly)” the “First-Order Deamidation Halftimes of GlyXxxAsnYyyGly” value was 1.26 days. In the case of “GlyGlyAsnGluGly (GGNEG; printed: GlyGlyAsnGluGly)”, the “First-Order Deamidation Halftimes of GlyXxxAsnYyyGly” value is reported as 73.9 days. For “GlySerAsnMetGly (GSNMG; printed: GlySerAsnMetGly)”, the “First-Order Deamidation Halftimes of GlyXxxAsnYyyGly” value was 54.9 days. In the case of “GlyLysAsnThrGly (GKNTG; printed: GlyLysAsnThrGly)”, the “First-Order Deamidation Halftimes of GlyXxxAsnYyyGly” value is reported as 58.1 days. In the case of “GlyArgAsnGlyGly (GRNGG; printed: GlyArgAsnGlyGly)”, the “First-Order Deamidation Halftimes of GlyXxxAsnYyyGly” value is reported as 1.00 days. For “GlyAspAsnLysGly (GDNKG; printed: GlyAspAsnLysGly)”, the “First-Order Deamidation Halftimes of GlyXxxAsnYyyGly” value was 75.9 days. In the case of “GlyGluAsnArgGly (GENRG; printed: GlyGluAsnArgGly)”, the “First-Order Deamidation Halftimes of GlyXxxAsnYyyGly” value is reported as 80.9 days. In the case of “GlyProAsnTyrGly (GPNYG; printed: GlyProAsnTyrGly)”, the “First-Order Deamidation Halftimes of GlyXxxAsnYyyGly” value is reported as 114 days. For “GlyValAsnAspGly (GVNDG; printed: GlyValAsnAspGly)”, the “First-Order Deamidation Halftimes of GlyXxxAsnYyyGly” value was 33.5 days. With “GlyIleAsnHisGly (GINHG; printed: GlyIleAsnHisGly)” the “First-Order Deamidation Halftimes of GlyXxxAsnYyyGly” value was 11.5 days. For “GlyTrpAsnHisGly (GWNHG; printed: GlyTrpAsnHisGly)”, the “First-Order Deamidation Halftimes of GlyXxxAsnYyyGly” value was 11.3 days. In the case of “GlyAmCysAsnAspGly (CNDG; not fully specified (N-terminus); printed as GlyAmCysAsnAspGly)”, the “First-Order Deamidation Halftimes of GlyXxxAsnYyyGly” value is reported as 32.9 days. In the case of “GlyIleAsnArgGly (GINRG; printed: GlyIleAsnArgGly)”, the “First-Order Deamidation Halftimes of GlyXxxAsnYyyGly” value is reported as 66.4 days. With “GlySerAsnArgGly (GSNRG; printed: GlySerAsnArgGly)” the “First-Order Deamidation Halftimes of GlyXxxAsnYyyGly” value was 59.7 days. With “GlyPheAsnLeuGly (GFNLG; printed: GlyPheAsnLeuGly)” the “First-Order Deamidation Halftimes of GlyXxxAsnYyyGly” value was 118 days. For “GlyThrAsnGlyGly (GTNGG; printed: GlyThrAsnGlyGly)”, the “First-Order Deamidation Halftimes of GlyXxxAsnYyyGly” value was 1.04 days. With “GlyTrpAsnAspGly (GWNDG; printed: GlyTrpAsnAspGly)” the “First-Order Deamidation Halftimes of GlyXxxAsnYyyGly” value was 43.6 days. With “GlyAlaAsnThrGly (GANTG; printed: GlyAlaAsnThrGly)” the “First-Order Deamidation Halftimes of GlyXxxAsnYyyGly” value was 43.5 days. In the case of “GlyPheAsnPheGly (GFNFG; printed: GlyPheAsnPheGly)”, the “First-Order Deamidation Halftimes of GlyXxxAsnYyyGly” value is reported as 69.5 days. With “GlyIleAsnProGly (GINPG; printed: GlyIleAsnProGly)” the “First-Order Deamidation Halftimes of GlyXxxAsnYyyGly” value was 11600 days. In the case of “GlyAlaAsnLeuGly (GANLG; printed: GlyAlaAsnLeuGly)”, the “First-Order Deamidation Halftimes of GlyXxxAsnYyyGly” value is reported as 124 days. For “GlyCysAsnCysGly (GCNCG; printed: GlyCysAsnCysGly)”, the “First-Order Deamidation Halftimes of GlyXxxAsnYyyGly” value was 46.0 days. In the case of “GlyProAsnCysGly (GPNCG; printed: GlyProAsnCysGly)”, the “First-Order Deamidation Halftimes of GlyXxxAsnYyyGly” value is reported as 60.0 days. With “GlyTyrAsnArgGly (GYNRG; printed: GlyTyrAsnArgGly)” the “First-Order Deamidation Halftimes of GlyXxxAsnYyyGly” value was 56.9 days. In the case of “GlySerAsnThrGly (GSNTG; printed: GlySerAsnThrGly)”, the “First-Order Deamidation Halftimes of GlyXxxAsnYyyGly” value is reported as 45.7 days. With “GlyGlyAsnTyrGly (GGNYG; printed: GlyGlyAsnTyrGly)” the “First-Order Deamidation Halftimes of GlyXxxAsnYyyGly” value was 63.6 days.

Same assay, conditions: pH 7.4, 37.0 ° C., 0.15 M Tris HCl; Gln pentapeptides; 52 values measured, rest derived from surface fitting
In the case of “GlyAspGlnIleGly (GDQIG; printed: GlyAspGlnIleGly)”, the “First-Order Deamidation Halftimes of GlyXxxGlnYyyGly” value is reported as 6400 days. For “GlyValGlnCysGly (GVQCG; printed: GlyValGlnCysGly)”, the “First-Order Deamidation Halftimes of GlyXxxGlnYyyGly” value was 1300 days. With “GlyPheGlnCysGly (GFQCG; printed: GlyPheGlnCysGly)” the “First-Order Deamidation Halftimes of GlyXxxGlnYyyGly” value was 2000 days. In the case of “GlyThrGlnAlaGly (GTQAG; printed: GlyThrGlnAlaGly)”, the “First-Order Deamidation Halftimes of GlyXxxGlnYyyGly” value is reported as 4300 days. With “GlyAspGlnPheGly (GDQFG; printed: GlyAspGlnPheGly)” the “First-Order Deamidation Halftimes of GlyXxxGlnYyyGly” value was 8500 days. In the case of “GlyMetGlnArgGly (GMQRG; printed: GlyMetGlnArgGly)”, the “First-Order Deamidation Halftimes of GlyXxxGlnYyyGly” value is reported as 5100 days. With “GlyAlaGlnIleGly (GAQIG; printed: GlyAlaGlnIleGly)” the “First-Order Deamidation Halftimes of GlyXxxGlnYyyGly” value was 6200 days. With “GlyValGlnAspGly (GVQDG; printed: GlyValGlnAspGly)” the “First-Order Deamidation Halftimes of GlyXxxGlnYyyGly” value was 7000 days. In the case of “GlyArgGlnHisGly (GRQHG; printed: GlyArgGlnHisGly)”, the “First-Order Deamidation Halftimes of GlyXxxGlnYyyGly” value is reported as 4900 days. In the case of “GlyLysGlnPheGly (GKQFG; printed: GlyLysGlnPheGly)”, the “First-Order Deamidation Halftimes of GlyXxxGlnYyyGly” value is reported as 7000 days. In the case of “GlyPheGlnValGly (GFQVG; printed: GlyPheGlnValGly)”, the “First-Order Deamidation Halftimes of GlyXxxGlnYyyGly” value is reported as 7100 days. In the case of “GlyIleGlnIleGly (GIQIG; printed: GlyIleGlnIleGly)”, the “First-Order Deamidation Halftimes of GlyXxxGlnYyyGly” value is reported as 6500 days. In the case of “GlyLeuGlnValGly (GLQVG; printed: GlyLeuGlnValGly)”, the “First-Order Deamidation Halftimes of GlyXxxGlnYyyGly” value is reported as 6800 days. In the case of “GlyAspGlnProGly (GDQPG; printed: GlyAspGlnProGly)”, the “First-Order Deamidation Halftimes of GlyXxxGlnYyyGly” value is reported as 11000 days. For “GlyCysGlnTyrGly (GCQYG; printed: GlyCysGlnTyrGly)”, the “First-Order Deamidation Halftimes of GlyXxxGlnYyyGly” value was 7900 days. In the case of “GlyValGlnSerGly (GVQSG; printed: GlyValGlnSerGly)”, the “First-Order Deamidation Halftimes of GlyXxxGlnYyyGly” value is reported as 4400 days. In the case of “GlyMetGlnGlyGly (GMQGG; printed: GlyMetGlnGlyGly)”, the “First-Order Deamidation Halftimes of GlyXxxGlnYyyGly” value is reported as 600 days. With “GlyGluGlnSerGly (GEQSG; printed: GlyGluGlnSerGly)” the “First-Order Deamidation Halftimes of GlyXxxGlnYyyGly” value was 6100 days. In the case of “GlyProGlnAspGly (GPQDG; printed: GlyProGlnAspGly)”, the “First-Order Deamidation Halftimes of GlyXxxGlnYyyGly” value is reported as 7200 days. With “GlyIleGlnHisGly (GIQHG; printed: GlyIleGlnHisGly)” the “First-Order Deamidation Halftimes of GlyXxxGlnYyyGly” value was 6100 days. For “GlyMetGlnPheGly (GMQFG; printed: GlyMetGlnPheGly)”, the “First-Order Deamidation Halftimes of GlyXxxGlnYyyGly” value was 6600 days. With “GlyAspGlnSerGly (GDQSG; printed: GlyAspGlnSerGly)” the “First-Order Deamidation Halftimes of GlyXxxGlnYyyGly” value was 6200 days. With “GlyThrGlnProGly (GTQPG; printed: GlyThrGlnProGly)” the “First-Order Deamidation Halftimes of GlyXxxGlnYyyGly” value was 7500 days. With “GlyProGlnLeuGly (GPQLG; printed: GlyProGlnLeuGly)” the “First-Order Deamidation Halftimes of GlyXxxGlnYyyGly” value was 5800 days. For “GlyGlyGlnMetGly (GGQMG; printed: GlyGlyGlnMetGly)”, the “First-Order Deamidation Halftimes of GlyXxxGlnYyyGly” value was 4500 days. For “GlyGluGlnCysGly (GEQCG; printed: GlyGluGlnCysGly)”, the “First-Order Deamidation Halftimes of GlyXxxGlnYyyGly” value was 2100 days. With “GlyAspGlnLeuGly (GDQLG; printed: GlyAspGlnLeuGly)” the “First-Order Deamidation Halftimes of GlyXxxGlnYyyGly” value was 6200 days. For “GlyTrpGlnCysGly (GWQCG; printed: GlyTrpGlnCysGly)”, the “First-Order Deamidation Halftimes of GlyXxxGlnYyyGly” value was 2300 days. With “GlyTyrGlnThrGly (GYQTG; printed: GlyTyrGlnThrGly)” the “First-Order Deamidation Halftimes of GlyXxxGlnYyyGly” value was 5600 days.
